Earlier results as cited in paper PMC11426987.
Where two headings read alike, the source gives them in different places.

How the values were obtained:
protein S (Homo sapiens) [1] = target: protein S (Homo sapiens) (UniProt P07225)
protein S (Homo sapiens) [2] = target: protein S (Homo sapiens) (UniProt P07225); remark: listed apart in the source

Chain of UniProt P07225 (P07225 42-676): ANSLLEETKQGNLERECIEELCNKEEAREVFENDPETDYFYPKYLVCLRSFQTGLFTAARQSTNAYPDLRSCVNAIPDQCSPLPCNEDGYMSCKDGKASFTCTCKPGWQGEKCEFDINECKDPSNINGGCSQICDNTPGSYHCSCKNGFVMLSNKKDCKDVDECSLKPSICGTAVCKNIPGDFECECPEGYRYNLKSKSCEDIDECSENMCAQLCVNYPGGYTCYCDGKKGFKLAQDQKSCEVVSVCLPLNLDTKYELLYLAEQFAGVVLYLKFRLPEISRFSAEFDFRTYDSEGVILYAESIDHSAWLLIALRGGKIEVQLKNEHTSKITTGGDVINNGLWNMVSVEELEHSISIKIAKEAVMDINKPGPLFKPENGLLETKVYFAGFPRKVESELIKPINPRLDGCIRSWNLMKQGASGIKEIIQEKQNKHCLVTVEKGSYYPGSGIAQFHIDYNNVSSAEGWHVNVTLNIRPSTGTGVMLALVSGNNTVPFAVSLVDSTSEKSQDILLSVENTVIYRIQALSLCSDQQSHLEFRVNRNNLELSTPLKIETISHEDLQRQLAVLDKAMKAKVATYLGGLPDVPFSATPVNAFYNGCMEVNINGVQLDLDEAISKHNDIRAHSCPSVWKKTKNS

Row | Kd (protein S (Homo sapiens) [1]) [nM] | Kd (protein S (Homo sapiens) [2]) [nM] | Substance
1 | > 1000 |  | TFPI (from UniProt P10646)
2 |  | 20 | TFPIα (from UniProt P10646)
